Laboratory results taken from patent US20200339678A1 (RIGEL PHARMACEUTICALS, published 2020).

T1: His-tagged recombinant Human TIGIT (human, UniProt Q495A1 22-141)
T1 construct: coated antigen of the direct ELISA; not shown: His tag
T1 sequence (looked up): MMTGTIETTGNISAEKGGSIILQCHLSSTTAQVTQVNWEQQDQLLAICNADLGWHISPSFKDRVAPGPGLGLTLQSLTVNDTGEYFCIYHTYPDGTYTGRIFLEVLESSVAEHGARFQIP

T2: His-tagged recombinant Mouse TIGIT (mouse, UniProt P86176 29-148, limits assumed)
T2 construct: coated antigen of the direct ELISA; not shown: His tag
T2 sequence (looked up): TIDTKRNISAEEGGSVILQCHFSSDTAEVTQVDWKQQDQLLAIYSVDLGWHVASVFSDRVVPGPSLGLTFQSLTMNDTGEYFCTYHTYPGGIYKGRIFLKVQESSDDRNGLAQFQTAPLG

T3: human TIGIT fused to a beta galactosidase portion, on YTS cells (YTS_hTIGIT/hGrb2) (human, UniProt Q495A1 22-244)
T3 sequence (looked up): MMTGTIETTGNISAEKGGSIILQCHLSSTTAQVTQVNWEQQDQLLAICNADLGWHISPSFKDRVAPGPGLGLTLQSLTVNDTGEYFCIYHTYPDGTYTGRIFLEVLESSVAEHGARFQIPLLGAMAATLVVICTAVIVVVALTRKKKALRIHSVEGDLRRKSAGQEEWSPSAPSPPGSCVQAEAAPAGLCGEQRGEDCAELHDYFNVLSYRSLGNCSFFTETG

T4: mouse TIGIT-Fc (mouse, UniProt P86176 29-148)
T4 construct: extracellular domain; also called TIGIT-ECD; not shown: Fc
T4 sequence (looked up): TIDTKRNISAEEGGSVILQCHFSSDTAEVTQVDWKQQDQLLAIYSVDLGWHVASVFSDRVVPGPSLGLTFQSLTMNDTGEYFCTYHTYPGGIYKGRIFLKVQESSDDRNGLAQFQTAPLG

T5: biotinylated human TIGIT (human, UniProt Q495A1 22-141, biotinylated (EZ-Link NHS-PEG4-biotin kit))
T5 construct: extracellular domain; also called TIGIT-ECD
T5 sequence (looked up): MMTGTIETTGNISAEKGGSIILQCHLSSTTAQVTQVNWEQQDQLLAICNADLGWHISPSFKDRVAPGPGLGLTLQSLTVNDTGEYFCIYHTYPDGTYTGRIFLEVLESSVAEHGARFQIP


Key:
[1] = target: T1, His-tagged recombinant Human TIGIT; assay: ELISA
Method: (§1) Binding affinities for antigen binding to anti-TIGIT monoclonal antibodies were determined by ELISA. […] Antibodies to be tested were diluted to 1 μM in PBS buffer containing 1% BSA and diluted 3-fold in a 10-point curve. […] Detection of the secondary antibody was determined using streptavidin-HRP and TMB reagent. All assays were performed at room temperature. Curve-fitting software was used to determine the EC₅₀ for each antibody.

[2] = target: T2, His-tagged recombinant Mouse TIGIT; assay: ELISA
Method: as §1

[3] = target: T3, human TIGIT fused to a beta …; assay: cell-based or functional assay
mouse TIGIT-Fc = target: T4, mouse TIGIT-Fc; assay: comp. ELISA vs PVR
Method: (§2) Antibodies were serially diluted in a 10-point curve starting at 1 μM in 3-fold steps. […] Units are in microM.

biotinylated human TIGIT = target: T5, biotinylated human TIGIT; assay: comp. ELISA vs PVR
Method: as §2

Binder	EC50 [1] [nM]	EC50 [2] [nM]	YTS_hTIGI/hGrbs_EFC_Agonism, 221_WT [3] [µM]	YTS_hTIGI/hGrbs_EFC_Antagonism, 221_hPVR/ICAM [3] [µM]	IC50 (mouse TIGIT-Fc) [nM]	IC50 (biotinylated human TIGIT) [nM]
Ab40i4 (antibody, V domains shown) VH: EVQLLESGGGLVQPGGSLRLSCAASGFTFSSYSMNWVRQAPGKGLEWVAGIKSSSGNKYYADSVKGRFTISRDNSKNTLYLQMNSLRAEDTAVYYCARGPYDVWMDYWGQGTLVTVSS VL: not shown	0.3	2.5	0.0007	1.63	11.1	3
Ab1 (Fab, V domains shown) VH: EVQLLESGGGLVQPGGSLRLSCAASGFTFSSYAMHWVRQAPGKGLEWVSGISSNGGSTSYADSVKGRFTISRDNSKNTLYLQMNSLRAEDTAVYYCARVPYSVWIDYWGQGTLVTVSS VL: not shown	40.3	181	–	–	632	89.9
Ab1i5 (antibody, V domains shown, mIgG2a of Ab1, I100aA) VH: EVQLLESGGGLVQPGGSLRLSCAASGFTFSSYAMHWVRQAPGKGLEWVSGISSNGGSTSYADSVKGRFTISRDNSKNTLYLQMNSLRAEDTAVYYCARVPYSVWADYWGQGTLVTVSS VL: not shown	8	6.8	–	–	13.3	2.8
Ab1i7 (antibody, V domains shown, mIgG2a of Ab1, S98A) VH: EVQLLESGGGLVQPGGSLRLSCAASGFTFSSYAMHWVRQAPGKGLEWVSGISSNGGSTSYADSVKGRFTISRDNSKNTLYLQMNSLRAEDTAVYYCARVPYAVWIDYWGQGTLVTVSS VL: not shown	3.8	72.9	–	–	183	16.1
Ab1i8 (antibody, V domains shown, mIgG2a of Ab1, S98G) VH: EVQLLESGGGLVQPGGSLRLSCAASGFTFSSYAMHWVRQAPGKGLEWVSGISSNGGSTSYADSVKGRFTISRDNSKNTLYLQMNSLRAEDTAVYYCARVPYGVWIDYWGQGTLVTVSS VL: not shown	1.7	26.3	–	–	99.3	5.8
Ab1i9 (antibody, V domains shown, mIgG2a of Ab1, V95A) VH: EVQLLESGGGLVQPGGSLRLSCAASGFTFSSYAMHWVRQAPGKGLEWVSGISSNGGSTSYADSVKGRFTISRDNSKNTLYLQMNSLRAEDTAVYYCARAPYSVWIDYWGQGTLVTVSS VL: not shown	0.6	2.3	–	–	9	2.3
Ab10i2 (antibody, V domains shown, hIgG1 of Ab10) VH: EVQLLESGGGLVQPGGSLRLSCAASGFTFSSYSMNWVRQAPGKGLEWVAYIKSNSGTKGYADSVKGRFTISRDNSKNTLYLQMNSLRAEDTAVYYCARGPYDYWLDYWGQGTLVTVSS VL: not shown	0.3	0.1	–	0.39	1.1	8.5
Ab16i1 (antibody, V domains shown) VH: EVQLLESGGGLVQPGGSLRLSCAASGFTFSSYSMHWVRQAPGKGLEWVAAIKSSGSSTSYADSVKGRFTISRDNSKNTLYLQMNSLRAEDTAVYYCARVPYDYWLDYWGQGTLVTVSS VL: not shown	2.1	0.5	–	–	0.4	2.1
Ab16i2 (antibody, V domains shown) VH: EVQLLESGGGLVQPGGSLRLSCAASGFTFSSYSMHWVRQAPGKGLEWVAAIKSSGSSTSYADSVKGRFTISRDNSKNTLYLQMNSLRAEDTAVYYCARVPYDYWLDYWGQGTLVTVSS VL: not shown	6.4	0.5	–	–	4.1	84.6
Ab17i1 (antibody, V domains shown, hIgG1 of Ab17) VH: EVQLLESGGGLVQPGGSLRLSCAASGFTFSSYAMSWVRQAPGKGLEWVASIKSSGGNTYYADSVKGRFTISRDNSKNTLYLQMNSLRAEDTAVYYCAREPYSYWMDYWGQGTLVTVSS VL: not shown	–	0.1	0.0012	> 1	1.1	–
Ab17i2 (antibody, V domains shown, mIgG2a of Ab17) VH: EVQLLESGGGLVQPGGSLRLSCAASGFTFSSYAMSWVRQAPGKGLEWVASIKSSGGNTYYADSVKGRFTISRDNSKNTLYLQMNSLRAEDTAVYYCAREPYSYWMDYWGQGTLVTVSS VL: not shown	–	0.2	–	> 1	1.6	–
Ab40 (Fab, V domains shown) VH: EVQLLESGGGLVQPGGSLRLSCAASGFTFSSYGMNWVRQAPGKGLEWVAGIKYSSGNKYYADSVKGRFTISRDNSKNTLYLQMNSLRAEDTAVYYCARGPYDVWMDYWGQGTLVTVSS VL: not shown	0.3	–	> 1	0.0023	> 1000	3.8
Ab40i1 (antibody, V domains shown, hIgG1 of Ab40) VH: EVQLLESGGGLVQPGGSLRLSCAASGFTFSSYGMNWVRQAPGKGLEWVAGIKYSSGNKYYADSVKGRFTISRDNSKNTLYLQMNSLRAEDTAVYYCARGPYDVWMDYWGQGTLVTVSS VL: not shown	0.3	–	> 1	0.0002	> 1000	1.3
Ab40i2 (antibody, V domains shown, hIgG1 of Ab40, G33S) VH: EVQLLESGGGLVQPGGSLRLSCAASGFTFSSYSMNWVRQAPGKGLEWVAGIKYSSGNKYYADSVKGRFTISRDNSKNTLYLQMNSLRAEDTAVYYCARGPYDVWMDYWGQGTLVTVSS VL: not shown	0.2	–	0.0011	0.186	> 1000	2
Ab48 (Fab, V domains shown) VH: EVQLLESGGGLVQPGGSLRLSCAASGFTFSSYSMNWVRQAPGKGLEWVANIKSSGSSTSYADSVKGRFTISRDNSKNTLYLQMNSLRAEDTAVYYCARGPYDVWMDYWGQGTLVTVSS VL: not shown	13.8	41.8	–	–	64.7	111
Ab53i5 (antibody, V domains shown) VH: EVQLLESGGGLVQPGGSLRLSCAASGFTFSSYGMHWVRQAPGKGLEWVASIKYSSSNKYYADSVKGRFTISRDNSKNTLYLQMNSLRAEDTAVYYCARGPYDVWLDYWGQGTLVTVSS VL: not shown	0.2	–	0.0057	0.526	> 1000	2.1
Ab53i7 (antibody, V domains shown, hIgG1 of Ab53, S52aY) VH: EVQLLESGGGLVQPGGSLRLSCAASGFTFSSYSMHWVRQAPGKGLEWVASIKYSSSNKYYADSVKGRFTISRDNSKNTLYLQMNSLRAEDTAVYYCARGPYDVWLDYWGQGTLVTVSS VL: not shown	3.2	–	0.0681	1.93	–	36.3
Ab53i8 (antibody, V domains shown, mIgG2a of Ab53, S52aY) VH: EVQLLESGGGLVQPGGSLRLSCAASGFTFSSYSMHWVRQAPGKGLEWVASIKYSSSNKYYADSVKGRFTISRDNSKNTLYLQMNSLRAEDTAVYYCARGPYDVWLDYWGQGTLVTVSS VL: not shown	1.7	–	0.02	> 1	–	12.5
Ab1i6 (antibody, V domains shown, mIgG2a of Ab1, P96A) VH: EVQLLESGGGLVQPGGSLRLSCAASGFTFSSYAMHWVRQAPGKGLEWVSGISSNGGSTSYADSVKGRFTISRDNSKNTLYLQMNSLRAEDTAVYYCARVAYSVWIDYWGQGTLVTVSS VL: not shown	29.4	–	–	–	> 1000	46.9
Ab1i10 (antibody, V domains shown, mIgG2a of Ab1, V99A) VH: EVQLLESGGGLVQPGGSLRLSCAASGFTFSSYAMHWVRQAPGKGLEWVSGISSNGGSTSYADSVKGRFTISRDNSKNTLYLQMNSLRAEDTAVYYCARVPYSAWIDYWGQGTLVTVSS VL: not shown	3.9	15.1	–	–	488	5.8
Ab1i11 (antibody, V domains shown, mIgG2a of Ab1, W100A) VH: EVQLLESGGGLVQPGGSLRLSCAASGFTFSSYAMHWVRQAPGKGLEWVSGISSNGGSTSYADSVKGRFTISRDNSKNTLYLQMNSLRAEDTAVYYCARVPYSVAIDYWGQGTLVTVSS VL: not shown	–	–	–	–	> 1000	> 1000
Ab1i12 (antibody, V domains shown, mIgG2a of Ab1, Y97A) VH: EVQLLESGGGLVQPGGSLRLSCAASGFTFSSYAMHWVRQAPGKGLEWVSGISSNGGSTSYADSVKGRFTISRDNSKNTLYLQMNSLRAEDTAVYYCARVPASVWIDYWGQGTLVTVSS VL: not shown	–	–	–	–	> 1000	> 1000
